Data published in IntAct's records for PubMed 22035699.

B1: 5-hydroxytryptamine receptor 1A (Homo sapiens), P08908 (parent)
chain: MDVLSPGQGNNTTSPPAPFETGGNTTGISDVTVSYQVITSLLLGTLIFCAVLGNACVVAAIALERSLQNVANYLIGSLAVTDLMVSVLVLPMAALYQVLNKWTLGQVTCDLFIALDVLCCTSSILHLCAIALDRYWAITDPIDYVNKRTPRRAAALISLTWLIGFLISIPPMLGWRTPEDRSDPDACTISKDHGYTIYSTFGAFYIPLLLMLVLYGRIFRAARFRIRKTVKKVEKTGADTRHGASPAPQPKKSVNGESGSRNWRLGVESKAGGALCANGAVRQGDDGAALEVIEVHRVGNSKEHLPLPSEAGPTPCAPASFERKNERNAEAKRKMALARERKTVKTLGIIMGTFILCWLPFFIVALVLPFCESSCHMPTLLGAIINWLGYSNSLLNPVIYAYFNKDFQNAFKKIIKCKFCRQ

Variants of: B1
Details: with fgfr1_human FGFR1, P11362
Sequence of fgfr1_human FGFR1, P11362 (P11362 whole entry, looked up): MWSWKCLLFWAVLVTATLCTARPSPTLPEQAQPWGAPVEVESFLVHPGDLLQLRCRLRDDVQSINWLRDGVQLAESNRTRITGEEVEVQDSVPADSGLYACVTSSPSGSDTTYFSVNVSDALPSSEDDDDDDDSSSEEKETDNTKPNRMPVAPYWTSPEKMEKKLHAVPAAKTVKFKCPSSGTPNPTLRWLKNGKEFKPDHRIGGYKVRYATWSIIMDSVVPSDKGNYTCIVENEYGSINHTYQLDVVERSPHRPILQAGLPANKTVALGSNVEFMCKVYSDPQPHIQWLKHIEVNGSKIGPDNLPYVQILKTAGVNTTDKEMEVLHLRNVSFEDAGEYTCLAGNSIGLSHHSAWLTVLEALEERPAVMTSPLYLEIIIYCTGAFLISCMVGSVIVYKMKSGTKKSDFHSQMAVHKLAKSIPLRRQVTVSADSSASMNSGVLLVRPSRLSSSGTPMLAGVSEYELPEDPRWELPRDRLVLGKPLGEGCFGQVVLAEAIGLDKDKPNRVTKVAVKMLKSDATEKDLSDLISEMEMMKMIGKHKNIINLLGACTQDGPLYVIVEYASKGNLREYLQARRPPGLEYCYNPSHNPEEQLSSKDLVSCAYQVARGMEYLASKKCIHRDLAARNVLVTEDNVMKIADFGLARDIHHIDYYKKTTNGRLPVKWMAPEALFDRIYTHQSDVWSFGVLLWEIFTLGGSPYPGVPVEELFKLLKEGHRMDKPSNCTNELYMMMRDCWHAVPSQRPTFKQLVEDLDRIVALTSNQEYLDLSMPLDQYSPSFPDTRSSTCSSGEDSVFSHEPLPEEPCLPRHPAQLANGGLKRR

effect of a mutation on the interaction | Variant
decreasing interaction | MDVLSPGQGNNTTSPPAPFETGGNTTGISDVTVSYQVITSLLLGTLIFCAVLGNACVVAAIALERSLQNVANYLIGSLAVTDLMVSVLVLPMAALYQVLNKWTLGQVTCDLFIALDVLCCTSSILHLCAIALDRYWAITDPIDYVNKRTPRRAAALISLTWLIGFLISIPPMLGWRTPEDRSDPDACTISKDHGYTIYSTFGAFYIPLLLMLVLYGRIFRAARFRIRKTVKKVEKTGADTRHGASPAPQPKKSVNGESGSRNWRLGVESKAGGALCANGAVRQGDDGAALEVIEVHRVGNSKEHLPLPSEAGPTPCAPASFERKNERNAEAKRKMALARERKTVKTLGIIMGTFILCWLPFFIVALVLPFCESSCHMPTLLGAIINWLGYSNSLLNPVIYAYFNKAAAAAAAAAAACKFCRQ [D406A;F407A;Q408A;N409A;F411A;K412A;K413A;I414A;I415A;K416A]
